B1: N-acetylgalactosamine-6-sulfatase (protein, listed as Homo sapiens)
chain: APQPPNILLLLMDDMGWGDLGVYGEPSRETPNLDRMAAEGLLFPNFYSANPLCSPSRAALLTGRLPIRNGFYTTNAHARNAYTPQEIVGGIPDSEQLLPELLKKAGYVSKIVGKWHLGHRPQFHPLKHGFDEWFGSPNCHFGPYDNKARPNIPVYRDWEMVGRYYEEFPINLKTGEANLTQIYLQEALDFIKRQARHHPFFLYWAVDATHAPVYASKPFLGTSQRGRYGDAVREIDDSIGKILELLQDLHVADNTFVFFTSDNGAALISAPEQGGSNGPFLCGKQTTFEGGMREPALAWWPGHVTAGQVSHQLGSIMDLFTTSLALAGLTPPSDRAIDGLNLLPTLLQGRLMDRPIFYYRGDTLMAATLGQHKAHFWTWTNSWENFRQGIDFCPGQNVSGVTTHNLEDHTKLPLIFHLGRDPGERFPLSFASAEYQEALSRITSVVQQHQEALVPAQPQLNVCNWAVMNWAPPGCEKLGKCLTPPESIPKKCLWSH
notes: recombinant human GALNS produced in CHO cells, used for ERT and oral tolerance

What was measured:
splenocytes = assay: Cytokine production by splenocytes after in vitro stimulation (Example 3); format: cell-based, mouse; settings: splenocytes of MKC mice treated by ERT with GALNS; culture supernatant
Procedure: Mice (MKC) genetically engineered not to express GALNS were used in these examples. […] 200 μl of the emulsion were administered as a subcutaneous injection. […] Control mice (n=2) were immunized with PBS emulsified in CFA and IFA respectively (Chung et al. (2005) J. Leukoc Biol. 77(6):906-13)). […] A control group (n=5) received PBS (Tomatsu et al. (2008) Hum Mol Genet. 15; 17(6):815-24). […]
The production of cytokines after peptide stimulation was evaluated as intracellular staining (by flow cytometry) and secreted cytokines (by LUMINEX). […] The cells were treated with 1 μl of a protein transport inhibitor BD GolgiPlug™ during 5 h at 37° C., saturated humidity and 5% CO2. The suspension of cells was centrifuged at 1000 rpm during 10 minutes. The supernatants were collected by further analysis with LUMINEX. The Fc receptors were blocked with 1 μl of α-mouse CD16/32 (e-Bioscience) during 15 min at 4° C. After washing, the cells were stained with PE-Cy7-labeled anti-mouse CD4 and Alexa700-labeled anti-mouse CD8 antibodies during 30 min at 4° C. After two washes, cells were permeabilized with a BD fixation/permeabilization solution during 20 min at 4° C. Cells were washed two times and stained with a cocktail of antibodies for intracellular staining (PE-labeled anti-mouse IL-4, APC-labeled anti-mouse IL-5 and FITC-labeled anti-mouse IFN-γ). After two washes, cells were analyzed by flow cytometry. Secreted cytokines (IL-4, IL-5, IL-13, IL-17 and IFN-γ) in the collected supernatants were detected by using a bead immunoassay kit which allows the measurement of multiple proteins simultaneously (LUMINEX technology, using a Millipore Milliplex™ kit).

MKC mice = assay: Oral tolerance induction: GALNS specific IgG plasma levels by ELISA (Example 19); format: in vivo, mouse
Procedure: Control groups (7 and 8) received PBS alone.
An indirect ELISA technique was used to detect plasma IgG and IgE antibodies against GALNS in treated and untreated mice. […] The plates were blocked with 3% Casein in PBS for 1 h at room temperature in a wet chamber. After two washes, first with TTBS (10 mMTris, 150 mM NaCl, 0.05% Tween20, pH 7.5), and then with TBS (10 mM Tris, 150 mM NaCl, 0.05%, pH 7.5), […] of mice plasma samples diluted 1:500, for IgE and 1:1,000 for IgG, in TTBS were added to the plate and incubated 2 h at 37° C. in a wet chamber. Four washes with TTBS were performed. 100 μl of anti-mouse IgE-HRP (Thermo Scientific) 1:1,000 in TTBS or IgG-Peroxidase (Sigma) 1:5,000 dilution in TTBS were applied. After three washes with TTBS, followed by one wash with TBS, the experiment was developed with the substrate TMB (3,3′,5,5′Tetramethylbenzidine). The enzymatic reaction was stopped with IN HCl solution and the absorbance was measured at 450 nm in a Multiskan® EL800 (Bio-Tek Instruments). Plasma concentrations of IgG antibodies anti-GALNS were derived by extrapolation of the absorbance values from a calibration curve using a mAb anti-GALNS.

[1] = tested on: Morquio A mice and WT mice; assay: Plasma IgG anti-GALNS by indirect ELISA in mice treated by ERT (Example 8); format: in vivo, mouse; settings: 16 i.v. infusions of GALNS
Procedure: Morquio A mouse models: a). […] 14(22): p. 3321-35).c). Missense mutation mice (Galnstm (C76S) SLU C2) (Tomatsu et al. (2007) Mol Genet Metab., 91(3): p. 251-8), and wild-type C57BL6 mice were treated by ERT. […] A control group received PBS.
An indirect ELISA technique was used to detect plasma IgG antibodies against GALNS in treated and untreated mice. […] The plates were blocked with 3% casein in PBS during 1 h at room temperature in a wet chamber. After two washes, first with TTBS (10 mM Tris, 150 mM NaCl, 0.05% Tween 20, pH 7.5), and then with TBS (10 mM Tris, 150 mM NaCl, 0.05%, pH 7.5), […] of mice plasma samples diluted (1:1,000) in TTBS were added to the plate and incubated 2 h at 37° C. in a wet chamber. Four washes with TTBS were performed. 100 μl of anti-mouse IgG-Peroxidase (Sigma) 1:5,000 dilution in TTBS were applied. After three washes with TTBS, followed by one wash with TBS, the experiment was developed with the substrate TMB (3,3′,5,5′-Tetramethylbenzidine, Sigma). The enzymatic reaction was stopped with IN HCl solution and the absorbance was measured at 450 nm in a microplate reader Multiskan® EL800 (Bio-Tek Instruments). Plasma concentrations of IgG antibodies anti-GALNS were derived by extrapolation of the absorbance values from a calibration curve using a mAb anti-GALNS.

[2] = oral 50 μg, one week after the last infusion

Molecule	secretion of cytokines IL-5 and IFN-γ (splenocytes)	reduction in GALNS specific IgG plasma levels vs non-tolerized mice, p or words (MKC mice; [2])	reduction in GALNS specific IgG plasma levels vs non-tolerized mice, p or words (MKC mice; oral 100 μg)	reduction in GALNS specific IgG plasma levels vs non-tolerized mice, p or words (MKC mice; oral 500 μg)	humoral response, IgG anti-GALNS in plasma ([1]; C2 mice)	humoral response, IgG anti-GALNS in plasma ([1]; MKC mice)	humoral response, IgG anti-GALNS in plasma ([1]; MTol mice)	humoral response, IgG anti-GALNS in plasma ([1]; WT mice)
QQHQEALVPAQPQLNVTNWA (listed as Homo sapiens) [Peptide I10]	strong response	0.0086	same levels or in some cases higher levels	same levels or in some cases higher levels				
B1		same levels or in some cases higher levels	0.033		heterogeneous humoral response	stronger and more homogeneous response	lowest levels of response	heterogeneous humoral response
